# Laboratory results published in the supplement of paper PMC12042874.
# ± gives the uncertainty stated by the source.
# Assay: amyloid nucleation score (Sup35N fusion, yeast selection) (log enrichment); library NNK3; higher = more nucleation; inactive = no reads after selection
# How it was run: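 The nucleation score is a DiMSum log enrichment of output over input reads, centred on the mode score of non-aggregating sequences. Sequences under 100 input reads were excluded, and reads came from Illumina sequencing of plasmid inserts. Psi-negative yeast expressing Sup35N fused to peptides of 20 random codons were induced with 100 μM copper sulfate for 24 hours and grown 7 days at 30°C on medium lacking adenine and uracil. Random libraries had three technical output replicates.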
row,Substance,amyloid nucleation score
1,MCQNANRYTGMSLVMFVGSV,1.24 ± 0.12
2,MCTNMSRNQFITDIVLCDRS,inactive
3,MCTTRGYMF,inactive
4,MCWLLLIRWDK,inactive
5,MDGGFECGNEGICWSTCVLG,inactive
6,MDRASVCLEGGMSMVWLRYV,inactive
7,MDSFRRDEYFKSLFVMLYLS,inactive
8,MEFYVYTMDKRCSRMFSWHS,inactive
9,MFEMS,inactive
10,MFLFFHVFKDFQIHRDLQDW,0.08 ± 0.59
11,MFLSWCKKVNLRMIILSSDT,inactive
12,MFNSFTNWLRQDQCRTIIGS,inactive
13,MFRWLAQWALLTTTSRPASQ,inactive
14,MFSSLV,inactive
15,MFVVYLGYRRAVIDNDALED,inactive
16,MFVWHSC,inactive
17,MGGELCY,inactive
18,MGGICRASRCCGCPTGRNCL,0.665 ± 0.27
19,MGHHRCYVRVSKKDYWF,inactive
20,MGLLLFLSANDV,inactive
21,MGMFTNPT,inactive
22,MGMLNGSSSMSDGYVYGGLW,inactive
23,MGPWCRKWIICLTRVSYRVG,inactive

row,Substance,amyloid nucleation score
1,MGVIMEGMRFFFVWMQM,inactive
2,MGVSADTYYNIRM,0.161 ± 0.43
3,MGVVRFTYCDIKV,inactive
4,MHHVLYERERSY,inactive
5,MIFLRIFYGLLGNSQFIIFL,0.331 ± 0.56
6,MIFRAQDSYGPLYT,inactive
7,MIFVGILVFSDLRASKVPWV,inactive
8,MIGHFTYVGLWGSLATYVQV,inactive
9,MIIPSTVMQSLSTCILERAS,inactive
10,MILKNWNVSISRGSRFNSYV,inactive
11,MILLFVVAFILLTEYICWAI,0.601 ± 0.18
12,MILLLSGGCVTESFWG,inactive
13,MILSNKVLIGCE,inactive
14,MINSHDL,inactive
15,MIRSVLLIQFNALEHSVRCR,inactive
16,MISWLNQKYHVLNQNFIYG,inactive
17,MITDSGIYFAFCWDKSTVSS,inactive
18,MIVGYACFAFGAWFFGFYCM,inactive
19,MIVSQVCTRSHVMGRSLGAE,inactive
20,MIYSHDHTYHSCLLDAVSCR,inactive
21,MKDASFQP,inactive
22,MKLEEELSYRFRRSWFYALW,inactive
23,MKNRYLNRCTLVANAFGLKE,inactive

row,Substance,amyloid nucleation score
1,MKPSKGVDL,inactive
2,MKRGDDLHTLFITSVPKSGY,inactive
3,MLCKYTCLICYGYRTKRSSE,0.684 ± 0.17
4,MLDAQSASWYYFRGSLFDVR,inactive
5,MLDISMEVSGCSILS,-0.261 ± 0.52
6,MLGVMCLYQVVFIDHSYSYR,inactive
7,MLITYTLYCVICLGC,1.46 ± 0.072
8,MLLGRLSLEVKFEWIFPRIG,0.687 ± 0.14
9,MLMVDDYEYMRFQMAGMVYM,inactive
10,MLPVIHIGVVSPRTFEQSSC,inactive
11,MLSVPDVVRFWMFKFYKFSW,inactive
12,MLYRCLAKYRMWHYVDLSLL,inactive
13,MMSMNMNLSYCYGFMGSHYS,1.47 ± 0.097
14,MMTIRSSMLAKGLVNALATV,inactive
15,MNGMICISNCFKDGHVTLNK,1.26 ± 0.16
16,MPFPVGNFHQGDNMNVSQCG,0.61 ± 0.12
17,MPLTFTSRSSDVICLNVGSG,-0.232 ± 0.62
18,MPSRHFLGY,inactive
19,MQPGYQCDNVVRSCHDAHGY,inactive
20,MRAGWLYFWASANGDNQWEA,inactive
21,MRARLANKQGMGPRTRVASV,inactive
22,MRCSDGPPKWNHD,-0.277 ± 0.88
23,MRFDNVTMRVLLCFS,inactive

row,Substance,amyloid nucleation score
1,MRLMEQYFICCVM,1.06 ± 0.17
2,MRTRGQTFTWGHYGCLLIDE,inactive
3,MRVVECLMRSLCRLDVRVHC,inactive
4,MRVVEYMTSLLSLIFYMGQK,inactive
5,MRYFFLTRNLGLRAEPVC,inactive
6,MSFTMMCMSFCSSILRYNLS,inactive
7,MSIDPHILVLVGEWLVCLKL,inactive
8,MSIIKKIG,inactive
9,MSLRLVMWFSNLVSYTV,inactive
10,MSPLGTCYRILKLDYCKYAV,-0.328 ± 0.55
11,MSRMMSLNMECTSGMPESQV,inactive
12,MSVRPL,inactive
13,MSVSSCLTPGDGNESHWNSR,inactive
14,MSYSFKAISAHNKQSVNNVW,inactive
15,MTILYYDS,inactive
16,MTLHAILFLTRSLDALYLLT,inactive
17,MTRVNFYFLFFELLLMAFGV,inactive
18,MTVHDIHYLS,inactive
19,MTYAVCGYSIFHKITRTRFG,inactive
20,MTYHDGTGLFGVVL,inactive
21,MVCNGFRDDRVMIVK,inactive
22,MVLGELCVPGIFALCRFECN,inactive
23,MVLYGAHECRDDKSVSLTRC,inactive

row,Substance,amyloid nucleation score
1,MVSSLRALCPQHFVCSVVCM,0.885 ± 0.14
2,MVYGVSAVEVKSSLVGWVVA,inactive
3,MWFTLKMYTMRCCFEVTLRK,inactive
4,MWSDLGV,-0.173 ± 0.87
5,MWYLTDWIDCFCLSNMNICT,1.81 ± 0.063
6,MYFILASSISILFGIKVFPM,inactive
7,MYQDPCIHSVCCWIM,1.28 ± 0.096
8,MYQSLAYFASDLRIHWHMRK,0.729 ± 0.14
9,MYRCNVGLLGVFPRCNPYDA,inactive
10,MYVQVS,-0.795 ± 0.91
11,MYWLHYKVHNYNSCVI,inactive
12,NACSARMGVVYNMLPSGESR,inactive
13,NADCAYCLLFNLRWSVCVRT,-0.067 ± 0.36
14,NALCSHTILLYGEVMLKSWL,inactive
15,NALFHRI,inactive
16,NAMGTFSMGDI,inactive
17,NCELGYARPLGDAMLNRAWF,inactive
18,NCFEYLYPRVTDTELNRFFL,inactive
19,NCIAFGWLWSELRN,inactive
20,NCIIR,inactive
21,NCMEINVYFTFVEMQLAELD,2.69 ± 0.055
22,NCNIWIEVQFTASDVIISWV,1.69 ± 0.066
23,NCNPFCIRLWFPNEYICW,inactive

row,Substance,amyloid nucleation score
1,NCQSTTTQGILCISLSYMEI,inactive
2,NDFVRSADKDFGSDRFSNVV,inactive
3,NDKVYRVGRTNLYNV,inactive
4,NDSLTLIWNGGSGYDVIKFE,inactive
5,NDSSQLLITI,inactive
6,NEALSERQYRAMLTETLVAG,inactive
7,NEGWPLWQWSSAVKHTFSKR,0.422 ± 0.31
8,NENTNLIRLNGTDMRAYKLW,inactive
9,NESFGTARSAGDGMKNVPGP,inactive
10,NEVVQSLTRSIFRRYSKSAM,0.129 ± 0.98
11,NFCLVRGVNLANPFSNDCKS,inactive
12,NFFCASRVMGLLMIF,inactive
13,NFFESLMVMSDKASLSVMK,inactive
14,NFFSA,-0.51 ± 0.73
15,NFFTL,inactive
16,NFFVKTNRHGNVTTFGGR,inactive
17,NFGQKQNIWAWTVYCPDPCE,inactive
18,NFIQVMAIIGLFAVHRGCVT,0.758 ± 0.14
19,NFLYWHRWVVWSSMSSYRKP,-0.348 ± 0.63
20,NFPYYSEYFFLCIRDSTSKS,inactive
21,NFQNSVLFNMV,inactive
22,NFSFGGLIISGCIMRNWGLQ,2.92 ± 0.077
23,NFSVTYEFFGQSI,0.292 ± 0.32

row,Substance,amyloid nucleation score
1,NFTRC,inactive
2,NFWEYQSECWRVTQW,inactive
3,NGCSS,inactive
4,NGCTW,inactive
5,NGDYDIIRSTCYTSKVYQSV,inactive
6,NGFSFRLGWH,1.55 ± 0.1
7,NGLGSTRMNQGHKLVFTNSI,inactive
8,NGLVCQKWRPYSI,inactive
9,NGNFWCFVLVLS,0.595 ± 0.24
10,NGSGGWLNINNISEGRWRTG,inactive
11,NGTATADRSNKSVPFPSI,inactive
12,NGWCHYWVWASIYDPNEISA,inactive
13,NGWYKVGLMA,inactive
14,NGYTNASS,inactive
15,NHKPLWFFDVATTGTGLNR,inactive
16,NHSES,inactive
17,NIDFLLSYRTMSKFYPNIRM,inactive
18,NIFRMRNQVIRSVLNVHVMT,inactive
19,NILLND,inactive
20,NIRYFYAFRLA,inactive
21,NISLELDVFCTTNNMG,1.74 ± 0.089
